Results: article PMC11978755

Tests used:
[1] = target: Recombinant hemagglutinin-esterase-fusion (HEF) ectodomain of influenza D virus D/swine/Oklahoma/1334/2011 (influenza D virus (D/swine/Oklahoma/1334/2011)); assay: BLI
[2] = target: Recombinant hemagglutinin-esterase-fusion (HEF) ectodomain of influenza C virus C/Johannesburg/1/1966 (influenza C virus (C/Johannesburg/1/1966)) (UniProt P07975); assay: BLI
UniProt P07975, sequence (P07975 15-630): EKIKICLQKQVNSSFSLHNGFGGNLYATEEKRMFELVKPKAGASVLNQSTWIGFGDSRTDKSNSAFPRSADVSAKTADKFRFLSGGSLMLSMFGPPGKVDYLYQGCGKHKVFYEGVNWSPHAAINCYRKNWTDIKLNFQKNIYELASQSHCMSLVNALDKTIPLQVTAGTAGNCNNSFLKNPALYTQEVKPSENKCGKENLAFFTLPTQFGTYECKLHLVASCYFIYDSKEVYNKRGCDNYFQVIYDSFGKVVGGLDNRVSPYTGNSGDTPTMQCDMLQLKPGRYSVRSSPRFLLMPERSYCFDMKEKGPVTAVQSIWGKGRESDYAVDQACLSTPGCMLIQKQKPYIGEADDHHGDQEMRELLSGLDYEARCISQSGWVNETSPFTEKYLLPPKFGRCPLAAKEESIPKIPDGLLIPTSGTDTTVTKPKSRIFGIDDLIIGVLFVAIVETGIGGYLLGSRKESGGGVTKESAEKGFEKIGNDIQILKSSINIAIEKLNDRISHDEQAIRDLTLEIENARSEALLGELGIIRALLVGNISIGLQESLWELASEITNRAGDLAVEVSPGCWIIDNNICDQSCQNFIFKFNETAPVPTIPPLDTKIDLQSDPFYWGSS

Row | Substance | Kd [1] | Kd [2]
1 | CR9114 IgG (human IgG1, wild type) (antibody) | > 100 µM | > 100 µM
2 | CR9114 IgM (pentameric, ten antigen binding sites) (antibody) | > 100 µM | > 100 µM
